Data on 8 molecules can be found in patent US20240101708A1 (Genentech, published 2024).

This assay deals with T1, recombinant human RNF43 extracellular domain (human, UniProt Q68DV7 24-197).
T1 construct: extracellular domain; also called huRNF43; human RNF43 ECD
T1 sequence (looked up): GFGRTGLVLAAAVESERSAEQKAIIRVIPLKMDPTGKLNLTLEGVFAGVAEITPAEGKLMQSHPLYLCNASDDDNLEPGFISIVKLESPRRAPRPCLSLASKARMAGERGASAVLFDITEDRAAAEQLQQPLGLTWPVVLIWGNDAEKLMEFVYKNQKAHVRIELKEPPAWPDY
Nature of the assay: SPR Biacore 8K; antibody captured on Protein A; RNF43 ECD analyte; 25 C. How it is done:
Antibodies were screened for binding to recombinant human RNF43 and ZNRF3 ECDs using a Biacore® 8 k instrument (GE Life Sciences). Briefly, antibodies diluted to 1 μg/ml in 1×HBSP buffer (Cytiva, BR100368) were captured on a Sensor Chip Protein A (GE Life Sciences) using a flow rate of 10 μl/minute and a contact time of 60 seconds. Binding of recombinant human RNF43 and ZNRF3 extracellular domain to the captured antibodies was analyzed at 25° C. using a single cycle kinetics method with a flow rate of 30 μl/minute, a contact time of 180 seconds and a dissociation time of 600 seconds. The concentration of recombinant human RNF43 and ZNRF3 extracellular domain in the single cycle kinetics were 0, 0.8, 4, 20, and 100 nM. Between cycles, the chip was regenerated using 10 mM Glycine HCl pH 1.5 injected for 30 seconds at 30 μl/minute. Data were evaluated using Biacore 8K Evaluation software (GE Life Sciences). Kinetic constants were obtained using a 1:1 binding model with the parameter RI set to zero. Cell surface ligase antibodies with sub-nanomolar affinities may provide advantages in certain instances, for example, in the degradation efficiency which is correlated with the durability of the ternary complex as shown in FIG. 5D.
Background: In SPR one partner is held on a chip, and binding of the other changes the refractive index at the surface.

B1: RNF43-126 (antibody, V domains shown)
VH: EVQLQESGPGLVKPSQSLSLTCSVTGFSITSSHRWNWIRKFPGNKLEWMGYINSAGSTNYNPSLKSRISITRDTSKNQFFLQVNSVTTEDTATYYCTRLGLQYRDFDYWGQGVMVTVSS
VL: DIQMTQSPASLSASLGETISIECRASDDIYSNLAWYQQKSGKSPQLLIYAANRLKDGVPSRFSGSGSGTQYSLKISGMQTEDEGDYFCLQASKFPLTFGSGTKLEIK
notes: Rat clone; VH/VL only
Consider B1, for which the Kd (as a rule, the concentration at which binding is half-saturated) worked out at 1.75 nM.

B2: RNF43-217 (antibody, V domains shown)
VH: EVQLQESGPGLVKPSQSLSLTCSVTGFSITSSHRWNWIRKFPGNKLEWMGYINSAGSTNYNPSLKSRVSITRDASKNQFFLQVNSVTTEDTATYYCTRLGLQYRDFDYWGQGVMVTVSS
VL: DIQMTQSPASLSASLGETISIECRASDDIYSNLAWYQQKSGKSPQLLIYAANRLKDGVPSRFSGSGSGTQYSLKISGMETEDEGDYFCLQASKFPLTFGSGTKLEIK
notes: Rat clone; VH/VL only
Turning to B2, the Kd worked out at 1.49 nM.

B3: RNF43-176 (antibody, V domains shown)
VH: QVQLKESGPGLVQPSQTLSLTCTVSGFSLTSYHVSWVRQPPGKGLEWMGVIWTGGSTAYNSLLKSRLSISRDISKSQVFLKMNSLQTEDTATYYCASQYYGYTSYFDYWGQGVMVTVSS
VL: DIQMTQSPVSLSASPEEIVTITCQASQDIDNWLTWYQQKPGKSPQLLIYSATSLADGIPSRFSGSRSGTQYSLKISRLQIEDTGIYYCLQRYGNPWTFGGGTKLELK
notes: Rat clone; VH/VL only
B3: the Kd is 5.71 nM.

B4: RNF43-206 (antibody, V domains shown)
VH: QVQLKESGPGLVQPSQTLSLTCTVSGFSLTSFHISWVRQPPGKGLEWMGIIWTGGSTAYNSLLKSRLSISRDISKSQVFLKMNSLQTEDTATYYCAGSYHGYTSYFDYWGQGVMVTVSS
VL: DIQMTQSPASLSASPEEIVTITCQASQDIDNWLAWYQQQPGKSPQLLIYSATSLADGIPSRFSGSRSGTQYSLKINRLQVEDTGIYYCLQRYSNPWTFGGGTKLELK
notes: Rat clone; VH/VL only
With B4, the Kd came out at 0.58 nM.

B5: RNF43-200 (antibody, V domains shown)
VH: QVQLKESGPGLVQPSQTLSLTCTVSGFSLTSYHISWVRQPPGKGLEWMGVIWTGGSTAYNSLLKSRLSISRDISKSQVFLKMNSLQAEDTATYYCAGSYYGYTSYFDYWGQGVMVTVSS
VL: DIQMTQSPASLSASPEEIVTITCQASQDIDNWLAWYQQKPGKSPQLLIYSATRLADGIPSRFSGSRSGIQYSLKINRLQVEDTGIYYCLQRFGNPWTFGGGTKLELK
notes: Rat clone; VH/VL only
As for B5, the Kd was found to be 0.539 nM.

B6: RNF43-168 (antibody, V domains shown)
VH: QVQLKESGPGLVQPSQTLSLTCTVSGFSLNRYHVSWVRQPPGKGLEWMGVVWTGGSTAYNSLLKSRLSISRDISKSQVFLKMISLQTEDTATYYCVSQYYGYTSYFDYWGQGVMVTVSS
VL: DIQMTQSPASLSASPEEIVTVTCQASQDIDNWLTWYQQKPGKSPQLLIYSATSLADGIPSRFSGSRSGTQYSLKIDRLQVEDTGIYYCLQRYGNPWTFGGGTKLELK
notes: Rat clone; VH/VL only
As for B6, the Kd was 1.36 nM.

B7: RNF43-156 (antibody, V domains shown)
VH: EVQLKESGPGLVQPSQTLSLTCTVSGFSLTDYSVYWVRQPPGKGLEWMGVMWRGGTTAYNSALKSRLSISRDTSKSQVFLKMNSLQTEDTAIYYCTRGGKYDGTYYYGWYFDFWGPGTMVTVSS
VL: DVVLTQSPATLSVTPGERISLSCRASESVDTYLYWYQQKPNESPRLLIKYASQSISGIPSRFSGSGSGTDFTLSINGVELEDLSIYYCQQGNSLPLTFGSGTKLEIK
notes: Rat clone; VH/VL only
On to B7, for which the Kd came to 0.209 nM.

B8: RNF43-224 (antibody, V domains shown)
VH: EVQLKESGPGLVQPSQTLSLTCTVSGFSLSDYSVHWVRQPPGKGLEWMGVMWSGGTTAYNSALKSRLSISRDTSKNQVLLEMNSLQTEDTAIYYCTRGGKYDGTYYYGWYFDFWGPGTMVTVSS
VL: DVVLTQSPATLSVTPGERISLSCRASESVDTYLSWYQQKPNESPRLLIKYASQSISGIPSRFSGSGSGTDFTLSINGVELEDLSIYYCQQGNSLPLTFGSGTKLEIK
notes: Rat clone; VH/VL only
Take B8: the Kd stood at 0.584 nM.
